System: Escherichia coli TOP10
Assay: shrunken log2 fold change of peptide-encoding DNA abundance (4.5 h post-induction vs induction); higher = less antimicrobial activity (less host growth inhibition)
Details: time post-induction: 4.5 h; library: site-saturation at positions 5, 18, 19, 20
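Also: peptides expressed intracellularly from a pBAD plasmid library in pooled LB shake-flask culture, induced with 0.3% L-arabinose, DNA abundance read by NGS, three biological replicates, DESeq2 with apeglm shrinkage.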

Sequence: RRIRRRPPRLPRPRPRPPADPRP
- shrunken log2 fold change: 0.781

Sequence: RRIRIRPPRLPRPRPRPSRTPRP
- shrunken log2 fold change: -0.455

Sequence: RRIRMRPPRLPRPRPRPMSHPRP
- shrunken log2 fold change: -0.121

Sequence: RRIRDRPPRLPRPRPRPDFKPRP
- shrunken log2 fold change: 0.00362

Sequence: RRIRQRPPRLPRPRPRPPTMPRP
- shrunken log2 fold change: 0.29

Sequence: RRIRRRPPRLPRPRPRPNGKPRP
- shrunken log2 fold change: 0.02

Sequence: RRIRERPPRLPRPRPRPYYCPRP
- shrunken log2 fold change: -0.913

Sequence: RRIRHRPPRLPRPRPRPAPVPRP
- shrunken log2 fold change: 0.466

Sequence: RRIRIRPPRLPRPRPRPLTHPRP
- shrunken log2 fold change: -0.358

Sequence: RRIRQRPPRLPRPRPRPTMMPRP
- shrunken log2 fold change: -0.194

Sequence: RRIRPRPPRLPRPRPRPDARPRP
- shrunken log2 fold change: 0.58

Sequence: RRIRSRPPRLPRPRPRPMNVPRP
- shrunken log2 fold change: -0.0106

Sequence: RRIRPRPPRLPRPRPRPQDDPRP
- shrunken log2 fold change: -0.367

Sequence: RRIRARPPRLPRPRPRPQGKPRP
- shrunken log2 fold change: 0.128

Sequence: RRIRRRPPRLPRPRPRPAIDPRP
- shrunken log2 fold change: 0.193

Sequence: RRIRFRPPRLPRPRPRPCNDPRP
- shrunken log2 fold change: -0.122

Sequence: RRIRFRPPRLPRPRPRPQEYPRP
- shrunken log2 fold change: -0.541

Sequence: RRIRTRPPRLPRPRPRPYFAPRP
- shrunken log2 fold change: -0.193

Sequence: RRIRHRPPRLPRPRPRPPMSPRP
- shrunken log2 fold change: 0.0891

Sequence: RRIRIRPPRLPRPRPRPKKTPRP
- shrunken log2 fold change: -0.235

Sequence: RRIRQRPPRLPRPRPRPWPPPRP
- shrunken log2 fold change: 0.16

Sequence: RRIRQRPPRLPRPRPRPNIAPRP
- shrunken log2 fold change: -0.0856

Sequence: RRIRKRPPRLPRPRPRPKATPRP
- shrunken log2 fold change: 0.0944

Sequence: RRIRNRPPRLPRPRPRPGDWPRP
- shrunken log2 fold change: 2.87

Sequence: RRIRSRPPRLPRPRPRPEAPPRP
- shrunken log2 fold change: 0.67

Sequence: RRIRLRPPRLPRPRPRPCQAPRP
- shrunken log2 fold change: 0.0641

Sequence: RRIRPRPPRLPRPRPRPTKPPRP
- shrunken log2 fold change: 0.323

Sequence: RRIRDRPPRLPRPRPRPGNQPRP
- shrunken log2 fold change: -0.0686

Sequence: RRIRPRPPRLPRPRPRPHQAPRP
- shrunken log2 fold change: 0.0618

Sequence: RRIRTRPPRLPRPRPRPNWWPRP
- shrunken log2 fold change: 0.188

Sequence: RRIRHRPPRLPRPRPRPACPPRP
- shrunken log2 fold change: -0.0965

Sequence: RRIRLRPPRLPRPRPRPDYFPRP
- shrunken log2 fold change: -0.146

Sequence: RRIRFRPPRLPRPRPRPEGVPRP
- shrunken log2 fold change: -0.175

Sequence: RRIRFRPPRLPRPRPRPHMPPRP
- shrunken log2 fold change: -0.0659

Sequence: RRIRERPPRLPRPRPRPNRIPRP
- shrunken log2 fold change: -0.0288

Sequence: RRIRTRPPRLPRPRPRPIHHPRP
- shrunken log2 fold change: -0.124

Sequence: RRIRNRPPRLPRPRPRPPHGPRP
- shrunken log2 fold change: -0.0913

Sequence: RRIRLRPPRLPRPRPRPWCFPRP
- shrunken log2 fold change: -0.158

Sequence: RRIRVRPPRLPRPRPRPCREPRP
- shrunken log2 fold change: -0.0897

Sequence: RRIRYRPPRLPRPRPRPNQQPRP
- shrunken log2 fold change: -0.0105

Sequence: RRIRQRPPRLPRPRPRPPQSPRP
- shrunken log2 fold change: 0.671

Sequence: RRIRYRPPRLPRPRPRPGSRPRP
- shrunken log2 fold change: -0.3

Sequence: RRIRMRPPRLPRPRPRPARTPRP
- shrunken log2 fold change: 1.53

Sequence: RRIRHRPPRLPRPRPRPSENPRP
- shrunken log2 fold change: -0.096

Sequence: RRIRRRPPRLPRPRPRPCCNPRP
- shrunken log2 fold change: -0.029

Sequence: RRIRLRPPRLPRPRPRPIYFPRP
- shrunken log2 fold change: -0.37

Sequence: RRIRVRPPRLPRPRPRPPLCPRP
- shrunken log2 fold change: 0.338

Sequence: RRIRPRPPRLPRPRPRPNELPRP
- shrunken log2 fold change: -0.313

Sequence: RRIRQRPPRLPRPRPRPYMVPRP
- shrunken log2 fold change: -0.176

Sequence: RRIRGRPPRLPRPRPRPSWAPRP
- shrunken log2 fold change: 0.532

Sequence: RRIRNRPPRLPRPRPRPLASPRP
- shrunken log2 fold change: -0.196

Sequence: RRIRMRPPRLPRPRPRPHEDPRP
- shrunken log2 fold change: 0.465

Sequence: RRIRIRPPRLPRPRPRPSPFPRP
- shrunken log2 fold change: -0.81

Sequence: RRIRDRPPRLPRPRPRPWRAPRP
- shrunken log2 fold change: 0.132

Sequence: RRIRHRPPRLPRPRPRPWVPPRP
- shrunken log2 fold change: -0.408

Sequence: RRIRSRPPRLPRPRPRPSWRPRP
- shrunken log2 fold change: 0.0852

Sequence: RRIRYRPPRLPRPRPRPFWHPRP
- shrunken log2 fold change: -0.556

Sequence: RRIRSRPPRLPRPRPRPCWWPRP
- shrunken log2 fold change: 0.159

Sequence: RRIRRRPPRLPRPRPRPTIQPRP
- shrunken log2 fold change: 0.144

Sequence: RRIRMRPPRLPRPRPRPRCAPRP
- shrunken log2 fold change: 1.12

— the supplement of paper PMC9112550, “Optimization of the antimicrobial peptide Bac7 by deep mutational scanning” (BMC Biology, 2022)
